Laboratory results published in article PMC11073785, “YeeD is an essential partner for YeeE-mediated thiosulfate uptake in bacteria and regulates thiosulfate ion decomposition” (PLOS Biology, 2024).

B1: Spirochaeta thermophila YeeE [Spirochaeta thermophila] / Spirochaeta thermophila YeeD (WT), His6-tagged [Spirochaeta thermophila] (parent complex)
chain 1: MIWTGLLVGFLFGIVLQRGRICFNSAFRDVLLFKDNYLFKLAVFTLALEMILFVLLSQVGLMQMNPKPLNLVGNIIGGFVFGLGMVLAGGCASGVTYRVGEGLTTAWFAALFYGLGAYATKSGAFSWWLSWVGQFKSPLSVEESAYYVKGAGPTISSVLGLNPWIPALVIAALFILWAFGTKTTSRETKFNWKIASVCLALVAGLGFITSTLSGRKYGLGITGGWINLFQGFLTNSPLNWEGLEIVGIILGAGVAAAVAGEFKLRMPKNPVTYLQVGIGGLLMGIGAVTAGGCNIGHFLTGVPQLALSSWLASIFFILGNWTMAWILF
chain 2: MANYQVSKEIDVRGEVCPIPDVEAKRAVQSANDGEIILVRIDYPLSKERIPETVKKLGSEVLEIEEAAPGEWNIYIKVKK

Variants of: B1
Experiment: BLI; Octet buffer (20 mM Tris-HCl (pH 8.0), 300 mM NaCl, 0.1% (w/v) DDM, 1 mM β-ME); response at 120 s; parent: 1.8; read off a plot

Row | response [nm] | Variant
1 | ~0.14 | chain 2 C17A
2 | ~0.04 | chain 2 D42A
